Laboratory results as given in US20070258972A1, “Combination of a Histone Deacetylase Inhibitor with a Death Receptor Ligand” (priority 2003, published 2007).

Tested on: Primary AML cells
Test: Apoptosis of primary AML cells by annexin V staining and flow cytometry
Assay type: cell-based, human
Conditions: for % of Apoptosis: LAQ824 100 nM and/or Apo-2L/TRAIL 100 ng/mL, 24 hours
Excerpt: Jurkat T cell leukemia and SKW6.4 B lymphoblast cells are obtained from American Tissue Culture Collection (Manassas, Va.). HL-60/Bcl-2 cells with ectopic over-expression of Bcl-2 and the control HL-60/Neo cells are created and maintained in culture as previously described. Primary leukemia blasts from six patients with AML in relapse are harvested, as previously described, from the peripheral blood or bone marrow after informed consent, as a part of a protocol study sanctioned by the local Institutional Review Board. The purity of leukemia blasts in the samples prior to culture in LAQ824 and/or Apo-2L/TRAIL was at least 80% or more, as determined by morphologic evaluation after Wright staining.
After drug treatments, cells are resuspended in 100 μL of the staining solution containing annexin-V fluorescein and propidium iodide in a HEPES buffer (Annexin-V-FLUOS Staining Kit, Boehringer-Mannheim, and Indianapolis, Ind.). Following incubation at room temperature for 15 minutes, annexin V positive cells are estimated by flow cytometry, as previously described.

B1: Apo-2L/TRAIL: recombinant human trimeric form of Apo-2L/TRAIL from Genentech, Inc., produced in E. coli (protein, UniProt P50591 1-281, looked up)
Tumor necrosis factor ligand …: MAMMEVQGGPSLGQTCVLIVIFTVLLQSLCVAVTYVYFTNELKQMQDKYSKSGIACFLKEDDSYWDPNDEESMNSPCWQVKWQLRQLVRKMILRTSEETISTVQEKQQNISPLVRERGPQRVAAHITGTRGRSNTLSSPNSKNEKALGRKINSWESSRSGHSFLSNLHLRNGELVIHEKGFYYIYSQTYFRFQEEIKENTKNDKQMVQYIYKYTSYPDPILLMKSARNSCWSKDAEYGLYSIYQGGIFELKENDRIFVSVTNEHLIDMDHEASFFGAFLVG
modifications: trimeric
notes: recombinant human trimeric form of Apo-2L/TRAIL from Genentech, Inc., produced in E. coli
In the case of B1, the “% of Apoptosis” value (Patient 1 primary AML cells, control 7.0) is reported as 7.6%, the “% of Apoptosis” value (Patient 2 primary AML cells, control 12.0) is reported as 14.0% and the “% of Apoptosis” value (Patient 3 primary AML cells, control 8.0) is reported as 8.6%. For the same molecule, the “% of Apoptosis” value (Patient 4 primary AML cells, control 10.0) was 11.0%, the “% of Apoptosis” value (Patient 5 primary AML cells, control 6.0) was 6.8% and the “% of Apoptosis” value (Patient 6 primary AML cells, control 7.0) was 8.1%. The “apoptosis of primary AML blasts (in words)” value (six samples, relapsed AML, Apo-2L/TRAIL 100 ng/mL, LAQ824 100 nM) was “resistant”.
